From publication PMC12442068

Target: recombinant TMPRSS2 (UniProt O15393)
Experiment: enzyme inhibition kinetics (progress curve method); TMPRSS2 mixed with increasing SB3 (0-10 uM), fluorescent substrate Z-Gly-Gly-Arg-AMC, TBS pH 7.6, 25 °C, 300 s; Camostat mesylate as reference inhibitor

## recombinant SerpinB3 protein, wild type (from UniProt P29508 1-390) (natural protein)
  dissociation constant, fold against Camostat: 6 times lower
